T1: Human CD3eg linker (human)
T1 construct: single-chain construct; also called recombinant human CD3
T1 chain: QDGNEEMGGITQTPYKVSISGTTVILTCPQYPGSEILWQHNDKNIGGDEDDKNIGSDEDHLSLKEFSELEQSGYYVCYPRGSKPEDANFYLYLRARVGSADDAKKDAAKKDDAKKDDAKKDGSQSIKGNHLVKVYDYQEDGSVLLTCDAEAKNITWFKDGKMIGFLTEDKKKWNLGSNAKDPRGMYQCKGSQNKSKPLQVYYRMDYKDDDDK


Biological target: T1, Human CD3eg linker
Test: SPR, vs unmutated H183/L072

| Binder | fold change of affinity [fold] |
| --- | --- |
| dBBDu183H H93N/dBBDu072L (antibody, name in Kabat numbering, V domains shown) VH: QVQLVESGGGLVQPGRSLRLSCAASGFTFSNAWMHWVRQAPGKGLEWVAQIKDKGNAYAAYYAPSVKGRFTISRDDSKNSIYLQMNSLKTEDTAVYYCNYVHYASASTVLPAFGVDAWGQGTTVTVSS VL: DIVMTQSPLSLPVTPGEPASISCQASQELVHMNRNTYLHWYQQKPGQAPRLLIYKVSNRFPGVPDRFSGSGSGTDFTLKISRVEAEDVGVYYCAQGTSVPFTFGQGTKLEIK | 0 |
| dBBDu183H H93W/dBBDu072L (antibody, name in Kabat numbering, V domains shown) VH: QVQLVESGGGLVQPGRSLRLSCAASGFTFSNAWMHWVRQAPGKGLEWVAQIKDKGNAYAAYYAPSVKGRFTISRDDSKNSIYLQMNSLKTEDTAVYYCWYVHYASASTVLPAFGVDAWGQGTTVTVSS VL: DIVMTQSPLSLPVTPGEPASISCQASQELVHMNRNTYLHWYQQKPGQAPRLLIYKVSNRFPGVPDRFSGSGSGTDFTLKISRVEAEDVGVYYCAQGTSVPFTFGQGTKLEIK | 0 |
| dBBDu183H H96K/dBBDu072L (antibody, name in Kabat numbering, V domains shown) VH: QVQLVESGGGLVQPGRSLRLSCAASGFTFSNAWMHWVRQAPGKGLEWVAQIKDKGNAYAAYYAPSVKGRFTISRDDSKNSIYLQMNSLKTEDTAVYYCHYVKYASASTVLPAFGVDAWGQGTTVTVSS VL: DIVMTQSPLSLPVTPGEPASISCQASQELVHMNRNTYLHWYQQKPGQAPRLLIYKVSNRFPGVPDRFSGSGSGTDFTLKISRVEAEDVGVYYCAQGTSVPFTFGQGTKLEIK | 0.6 |
| dBBDu183H H93Q/dBBDu072L (antibody, name in Kabat numbering, V domains shown) VH: QVQLVESGGGLVQPGRSLRLSCAASGFTFSNAWMHWVRQAPGKGLEWVAQIKDKGNAYAAYYAPSVKGRFTISRDDSKNSIYLQMNSLKTEDTAVYYCQYVHYASASTVLPAFGVDAWGQGTTVTVSS VL: DIVMTQSPLSLPVTPGEPASISCQASQELVHMNRNTYLHWYQQKPGQAPRLLIYKVSNRFPGVPDRFSGSGSGTDFTLKISRVEAEDVGVYYCAQGTSVPFTFGQGTKLEIK | 0 |
| dBBDu183H H93S/dBBDu072L (antibody, name in Kabat numbering, V domains shown) VH: QVQLVESGGGLVQPGRSLRLSCAASGFTFSNAWMHWVRQAPGKGLEWVAQIKDKGNAYAAYYAPSVKGRFTISRDDSKNSIYLQMNSLKTEDTAVYYCSYVHYASASTVLPAFGVDAWGQGTTVTVSS VL: DIVMTQSPLSLPVTPGEPASISCQASQELVHMNRNTYLHWYQQKPGQAPRLLIYKVSNRFPGVPDRFSGSGSGTDFTLKISRVEAEDVGVYYCAQGTSVPFTFGQGTKLEIK | 0 |
| dBBDu183H H93R/dBBDu072L (antibody, name in Kabat numbering, V domains shown) VH: QVQLVESGGGLVQPGRSLRLSCAASGFTFSNAWMHWVRQAPGKGLEWVAQIKDKGNAYAAYYAPSVKGRFTISRDDSKNSIYLQMNSLKTEDTAVYYCRYVHYASASTVLPAFGVDAWGQGTTVTVSS VL: DIVMTQSPLSLPVTPGEPASISCQASQELVHMNRNTYLHWYQQKPGQAPRLLIYKVSNRFPGVPDRFSGSGSGTDFTLKISRVEAEDVGVYYCAQGTSVPFTFGQGTKLEIK | 2.4 |
| dBBDu183H H93V/dBBDu072L (antibody, name in Kabat numbering, V domains shown) VH: QVQLVESGGGLVQPGRSLRLSCAASGFTFSNAWMHWVRQAPGKGLEWVAQIKDKGNAYAAYYAPSVKGRFTISRDDSKNSIYLQMNSLKTEDTAVYYCVYVHYASASTVLPAFGVDAWGQGTTVTVSS VL: DIVMTQSPLSLPVTPGEPASISCQASQELVHMNRNTYLHWYQQKPGQAPRLLIYKVSNRFPGVPDRFSGSGSGTDFTLKISRVEAEDVGVYYCAQGTSVPFTFGQGTKLEIK | 0 |
| dBBDu183H H96N/dBBDu072L (antibody, name in Kabat numbering, V domains shown) VH: QVQLVESGGGLVQPGRSLRLSCAASGFTFSNAWMHWVRQAPGKGLEWVAQIKDKGNAYAAYYAPSVKGRFTISRDDSKNSIYLQMNSLKTEDTAVYYCHYVNYASASTVLPAFGVDAWGQGTTVTVSS VL: DIVMTQSPLSLPVTPGEPASISCQASQELVHMNRNTYLHWYQQKPGQAPRLLIYKVSNRFPGVPDRFSGSGSGTDFTLKISRVEAEDVGVYYCAQGTSVPFTFGQGTKLEIK | 0 |
| dBBDu183H H96F/dBBDu072L (antibody, name in Kabat numbering, V domains shown) VH: QVQLVESGGGLVQPGRSLRLSCAASGFTFSNAWMHWVRQAPGKGLEWVAQIKDKGNAYAAYYAPSVKGRFTISRDDSKNSIYLQMNSLKTEDTAVYYCHYVFYASASTVLPAFGVDAWGQGTTVTVSS VL: DIVMTQSPLSLPVTPGEPASISCQASQELVHMNRNTYLHWYQQKPGQAPRLLIYKVSNRFPGVPDRFSGSGSGTDFTLKISRVEAEDVGVYYCAQGTSVPFTFGQGTKLEIK | 0 |
| dBBDu183H H96Q/dBBDu072L (antibody, name in Kabat numbering, V domains shown) VH: QVQLVESGGGLVQPGRSLRLSCAASGFTFSNAWMHWVRQAPGKGLEWVAQIKDKGNAYAAYYAPSVKGRFTISRDDSKNSIYLQMNSLKTEDTAVYYCHYVQYASASTVLPAFGVDAWGQGTTVTVSS VL: DIVMTQSPLSLPVTPGEPASISCQASQELVHMNRNTYLHWYQQKPGQAPRLLIYKVSNRFPGVPDRFSGSGSGTDFTLKISRVEAEDVGVYYCAQGTSVPFTFGQGTKLEIK | 0.3 |

Next, values leading:

| fold change of affinity [fold] | Binder |
| --- | --- |
| 0 | dBBDu183H H96D/dBBDu072L (antibody, name in Kabat numbering, V domains shown) VH: QVQLVESGGGLVQPGRSLRLSCAASGFTFSNAWMHWVRQAPGKGLEWVAQIKDKGNAYAAYYAPSVKGRFTISRDDSKNSIYLQMNSLKTEDTAVYYCHYVDYASASTVLPAFGVDAWGQGTTVTVSS VL: DIVMTQSPLSLPVTPGEPASISCQASQELVHMNRNTYLHWYQQKPGQAPRLLIYKVSNRFPGVPDRFSGSGSGTDFTLKISRVEAEDVGVYYCAQGTSVPFTFGQGTKLEIK |
| 0 | dBBDu183H H96E/dBBDu072L (antibody, name in Kabat numbering, V domains shown) VH: QVQLVESGGGLVQPGRSLRLSCAASGFTFSNAWMHWVRQAPGKGLEWVAQIKDKGNAYAAYYAPSVKGRFTISRDDSKNSIYLQMNSLKTEDTAVYYCHYVEYASASTVLPAFGVDAWGQGTTVTVSS VL: DIVMTQSPLSLPVTPGEPASISCQASQELVHMNRNTYLHWYQQKPGQAPRLLIYKVSNRFPGVPDRFSGSGSGTDFTLKISRVEAEDVGVYYCAQGTSVPFTFGQGTKLEIK |
| 0 | dBBDu183H H93Y/dBBDu072L (antibody, name in Kabat numbering, V domains shown) VH: QVQLVESGGGLVQPGRSLRLSCAASGFTFSNAWMHWVRQAPGKGLEWVAQIKDKGNAYAAYYAPSVKGRFTISRDDSKNSIYLQMNSLKTEDTAVYYCYYVHYASASTVLPAFGVDAWGQGTTVTVSS VL: DIVMTQSPLSLPVTPGEPASISCQASQELVHMNRNTYLHWYQQKPGQAPRLLIYKVSNRFPGVPDRFSGSGSGTDFTLKISRVEAEDVGVYYCAQGTSVPFTFGQGTKLEIK |
| 0 | dBBDu183H H93T/dBBDu072L (antibody, name in Kabat numbering, V domains shown) VH: QVQLVESGGGLVQPGRSLRLSCAASGFTFSNAWMHWVRQAPGKGLEWVAQIKDKGNAYAAYYAPSVKGRFTISRDDSKNSIYLQMNSLKTEDTAVYYCTYVHYASASTVLPAFGVDAWGQGTTVTVSS VL: DIVMTQSPLSLPVTPGEPASISCQASQELVHMNRNTYLHWYQQKPGQAPRLLIYKVSNRFPGVPDRFSGSGSGTDFTLKISRVEAEDVGVYYCAQGTSVPFTFGQGTKLEIK |
| 0.2 | dBBDu183H H96G/dBBDu072L (antibody, name in Kabat numbering, V domains shown) VH: QVQLVESGGGLVQPGRSLRLSCAASGFTFSNAWMHWVRQAPGKGLEWVAQIKDKGNAYAAYYAPSVKGRFTISRDDSKNSIYLQMNSLKTEDTAVYYCHYVGYASASTVLPAFGVDAWGQGTTVTVSS VL: DIVMTQSPLSLPVTPGEPASISCQASQELVHMNRNTYLHWYQQKPGQAPRLLIYKVSNRFPGVPDRFSGSGSGTDFTLKISRVEAEDVGVYYCAQGTSVPFTFGQGTKLEIK |
